Consider nine molecules from patent publication US20010010923A1, “MODIFIED CARBOXYPEPTIDASE” (priority 1997, published 2001).

Residue numbers refer to the chain shown, from its start. Numbers in names are those of the source.

What all share (assay type): biochemical
Test [1] can be described thus: Transpeptidation of Bz-G-A-R-A-R-X-OH at pH 7.5 at 50% substrate consumption, Table 4. Also on record: key to fa: fraction: aminolysis product / sum of all products formed. Conditions: for Pmax (peak product yield) / fa: 375 mM H-Leu-NH2; for fa / t: 50% substrate consumption; for t: 375 mM H-Leu-NH2, 2 mM substrate, [E] 0.1 mg/mL. The procedure:
Transamidation reactions were carried out generally as described in PCT Application WO 95/20039. In general, the method included dissolving the nucleophile (H-Leu-NH2, unless otherwise indicated) in 50 mM HEPES, 5 mM EDTA and adjusting the pH to 7.5, 5 μl of peptide substrate (8 mM Bz-G-A-R-A-R-A-OH, unless otherwise indicated, in methanol) was added to 190 μl nucleophile solution followed by 5 μl enzyme, resulting in a substrate concentration of 0.2 mM.
(§1) During the reaction, 20 μl aliquots were removed from the reaction mixture and added to 50 μl 1% trifluoroacetic acid to quench the reaction. The reactant composition was determined by HPLC using a Waters HPLC equipped with a C-18 Waters Novapac 4μ reverse phase column and various gradients of acetonitrile in 0.1% trifluoroacetic acid. The separation was monitored at 254 nm allowing the direct quantification of the products from the integrated peak areas. The composition of the reaction mixture was determined at least twvice during the reaction, the first when 20-50% (preferably 35%) of the substrate had been consumed in the reaction and the second time when 50-90% (preferably 80%) of the peptide substrate had been consumed.
(§2) The fraction of aminolysis (fa) was expressed as the ratio between the formed aminolysis product and the sum of all products formed. Unconsumed substrate was disregarded in the calculations.
Site specific mutagenesis was performed as described for Example 1 to generate the specific mutants described below. Transamidation reactions were performed as described for Examples 1.

Test [2] is described as follows: Transamidation of Bz-G-A-R-A-R-A-OH, Table 6. Conditions: [S] = 2 mM; H-Leu-NH2 375 mM; pH 7.5; [E] 0.1 mg/mL.
Test [3] is described as follows: Transamidation of FA-Arg-Ala-OH, Table 6. The conditions noted are these: H-Leu-NH2 375 mM, pH 7.5, [E] 0.1 mg/mL.
Test [4] can be described thus: Transpeptidation of Bz-G-A-R-A-R-X-OH at pH 6.5 at 50% substrate consumption, Table 5. More on the design: key to fa: fa = aminolysis product / sum of all products formed. The conditions noted are these: for Pmax (peak product yield) / fa: 750 mM H-Leu-NH2; for fa / t: 50% substrate consumption; for t: 750 mM H-Leu-NH2, 2 mM substrate, [E] 0.1 mg/mL. On the procedure:
Transamidation reactions were carried out generally as described in PCT Application WO 95/20039. In general, the method included dissolving the nucleophile (H-Leu-NH2, unless otherwise indicated) in 50 mM HEPES, […], 5 μl of peptide substrate (8 mM Bz-G-A-R-A-R-A-OH, unless otherwise indicated, in methanol) was added to 190 μl nucleophile solution followed by 5 μl enzyme, resulting in a substrate concentration of 0.2 mM.
as §1
The fraction of aminolysis (fa) was expressed as the ratio between the formed aminolysis product and the sum of all products formed. Unconsumed substrate was disregarded in the calculations. […]

A short description of test [5]: Transamidation of Bz-G-A-R-A-R-A-OH, Table 6. The conditions noted are these: H-Leu-NH2 375 mM, pH 7.5, [E] 0.1 mg/mL. On the procedure: (§3) Transamidation reactions were carried out generally as described in PCT Application WO 95/20039. In general, the method included dissolving the nucleophile (H-Leu-NH2, unless otherwise indicated) in 50 mM HEPES, 5 mM EDTA and adjusting the pH to 7.5, 5 μl of peptide substrate (8 mM Bz-G-A-R-A-R-A-OH, unless otherwise indicated, in methanol) was added to 190 μl nucleophile solution followed by 5 μl enzyme, […]
as §1, §2
Site specific mutagenesis was performed as described for Example 1 to generate the specific mutants described below. Transamidation reactions were performed as described in the previous examples.

Test [6] in a line: Transpeptidation of Bz-G-A-R-A-R-A-OH (arginine at P1) with H-Leu-NH2, Table 1. Conditions: 2mM substrate, pH 7.5, [E] 0.1 mg/mL. The procedure: The mutant carboxypeptidase enzvmes used in these studies were produced by site-directed mutagenesis, essentially following the procedures described in published PCT Patent Application No. WO 95/20039. In general, oligonucleotides synthesized to encode the amino acid substitution were used to produce the mutant enzymes.
as §3, §1
The reaction products were collected and identified by amino acid analysis after acid hydrolysis using a Pharmacia Alpha Plus analyzer. Further identification was obtained by co-chromatography of authentic standard compounds.
as §2

B1: L178S + M398L: carboxypeptidase Y mutant L178S + M398L (S1 and S1' subsites) (protein, UniProt P00729 112-532, looked up, variant L178S M398L)
Carboxypeptidase Y: KIKDPKILGIDPNVTQYTGYLDVEDEDKHFFFWTFESRNDPAKDPVILWLNGGPGCSSLTGLFFELGPSSIGPDLKPIGNPYSWNSNATVIFLDQPVNVGFSYSGSSGVSNTVAAGKDVYNFLELFFDQFPEYVNKGQDFHIAGESYAGHYIPVFASEILSHKDRNFNLTSVLIGNGSTDPLTQYNYYEPMACGEGGEPSVLPSEECSAMEDSLERCLGLIESCYDSQSVWSCVPATIYCNNAQLAPYQRTGRNVYDIRKDCEGGNLCYPTLQDIDDYLNQDYVKEAVGAEVDHYESCNFDINRNFLFAGDWMKPYHTAVTDLLNQDLPILVYAGDKDFICNWLGNKAWTDVLPWKYDEEFASQKVRNWTASITDEVAGEVKSYKHFTYLRVFNGGHLVPFDVPENALSMVNEWIHGGFSL
In the case of B1, the “Pmax (peak product yield)” value in test [1] (leaving group A) is recorded as above 0.48; in test [1] (leaving group L), above 0.39; in test [4] (leaving group A) it was 0.48; in test [4] (leaving group L), 0.54. In addition, the fa in test [1] (leaving group A) turned out to be 0.77; in test [1] (leaving group I), 0.54; in test [1] (leaving group L), 0.39; in test [1] (leaving group M), 0.17; in test [1] (leaving group V), 0.45; in test [2], 0.91. Further, the fa entry in test [3] ([S] = 2 mM) is listed as “.99”; in test [4] (leaving group A), 0.92; in test [4] (leaving group L), 0.54. In addition, the “t” value in test [1] (leaving group A) was found to be 41 min; in test [1] (leaving group I) it was 33 min; in test [1] (leaving group L), 1 min; in test [1] (leaving group M) it was 17 min; in test [1] (leaving group V), 30 min; in test [4] (leaving group A), 53 min. Moreover, the “t” value in test [4] (leaving group L) was 19 min. In addition, the Pmax in test [3] ([S] = 2 mM) was 0.90.

B2: N241D + W312N: carboxypeptidase Y mutant N241D + W312N (protein, UniProt P00729 112-532, looked up, variant N241D W312N)
Carboxypeptidase Y: B1 Carboxypeptidase Y with S178L, N241D, W312N, L398M
Turning to B2, the figures for the fa in test [2] and in test [3] ([S] = 2 mM) were 0.17 and 0.74, respectively. Further, the Pmax in test [5] ([S] = 2 mM) stood at 0.13; in test [3] ([S] = 2 mM), 0.58.

B3: N241D + W312A: carboxypeptidase Y mutant N241D + W312A (protein, UniProt P00729 112-532, looked up, variant N241D W312A)
Carboxypeptidase Y: B1 Carboxypeptidase Y with S178L, N241D, W312A, L398M
As to B3, the fa in test [2] amounted to 0.28; in test [3] ([S] = 2 mM), 0.80. The values for the Pmax in test [5] ([S] = 2 mM) and in test [3] ([S] = 2 mM) were 0.20 and 0.72, respectively.

B4: N241D + W312F: carboxypeptidase Y mutant N241D + W312F (protein, UniProt P00729 112-532, looked up, variant N241D W312F)
Carboxypeptidase Y: B1 Carboxypeptidase Y with S178L, N241D, W312F, L398M
For the molecule B4, the fa in test [2] came to 0.24; in test [3] ([S] = 2 mM), 0.70. Besides, the results for the Pmax in test [5] ([S] = 2 mM) and in test [3] ([S] = 2 mM) were 0.17 and 0.58, respectively.

B5: N241E: carboxypeptidase Y S1 mutant, substitution N241E (protein, UniProt P00729 112-532, looked up, variant N241E)
Carboxypeptidase Y: B1 Carboxypeptidase Y with S178L, N241E, L398M
With B5, the fa is recorded as 0.47 in test [2], 0.43 in test [5] ([S] = 0.2 mM), 0.70 in test [3] ([S] = 0.2 mM) and 0.92 in test [3] ([S] = 2 mM). For the same molecule, the “fa (fraction of aminolysis)” value in test [6] ([N] 50 mM H-Leu-NH2) came to 0.27. For the same molecule, the Pmax in test [5] ([S] = 0.2 mM) worked out at 0.25; in test [5] ([S] = 2 mM) it was 0.25; in test [3] ([S] = 0.2 mM), 0.49.

B6: N241D: carboxypeptidase Y mutant, substitution N241D (protein, UniProt P00729 112-532, looked up, variant N241D)
Carboxypeptidase Y: B1 Carboxypeptidase Y with S178L, N241D, L398M
As to B6, the results for the fa in test [2] and in test [3] ([S] = 2 mM) were 0.15 and 0.85, respectively. The Pmax in test [5] ([S] = 2 mM) came to 0.09; in test [3] ([S] = 2 mM) it was 0.56.

B7: N241D + W312L: carboxypeptidase Y mutant N241D + W312L (protein, UniProt P00729 112-532, looked up, variant N241D W312L)
Carboxypeptidase Y: B1 Carboxypeptidase Y with S178L, N241D, W312L, L398M
With B7, the results for the fa in test [2] and in test [3] ([S] = 2 mM) were 0.05 and 0.50, respectively. Further, the Pmax in test [5] ([S] = 2 mM) was 0.05; in test [3] ([S] = 2 mM), 0.37.

B8: L245E: carboxypeptidase Y S1 mutant, substitution L245E (protein, UniProt P00729 112-532, looked up, variant L245E)
Carboxypeptidase Y: B1 Carboxypeptidase Y with S178L, L245E, L398M
As to B8, the fa in test [2] was determined as 0.20; in test [3] ([S] = 2 mM), 0.83. Moreover, the “fa (fraction of aminolysis)” value in test [6] ([N] 50 mM H-Leu-NH2) turned out to be 0.07; in test [6] ([N] 375 mM H-Leu-NH2), 0.18. The results for the Pmax in test [5] ([S] = 2 mM) and in test [3] ([S] = 2 mM) were 0.09 and 0.73, respectively.

B9: W312D: carboxypeptidase Y S1 mutant, substitution W312D (protein, UniProt P00729 112-532, looked up, variant W312D)
Carboxypeptidase Y: B1 Carboxypeptidase Y with S178L, W312D, L398M
With B9, the results for the fa in test [2] and in test [3] ([S] = 2 mM) were 0.16 and 0.77, respectively. Besides, in test [6] ([N] 375 mM H-Leu-NH2), the “fa (fraction of aminolysis)” value stood at 0.15. Also, the values for the Pmax in test [5] ([S] = 2 mM) and in test [3] ([S] = 2 mM) were 0.08 and 0.67, respectively.
